Source: US20160272683A1 (Novo Nordisk, published 2016)
Numbered stars: 1 amine (or outer) side, 2 acyl side, 3 side chain; on linkers, the order of the positions; unused ones are H or OH. * marks the point of attachment. C20 diacid = O=C(O)CCCCCCCCCCCCCCCCCCC(=O)*; C18 diacid = O=C(O)CCCCCCCCCCCCCCCCC(=O)*; γGlu = O=C(O)[C@H](CCC(=O)[*:2])N[*:1]

T1: human amylin receptor (human calcitonin receptor + human RAMP3) (human) (UniProt P30988)
T1 sequence (looked up) 1: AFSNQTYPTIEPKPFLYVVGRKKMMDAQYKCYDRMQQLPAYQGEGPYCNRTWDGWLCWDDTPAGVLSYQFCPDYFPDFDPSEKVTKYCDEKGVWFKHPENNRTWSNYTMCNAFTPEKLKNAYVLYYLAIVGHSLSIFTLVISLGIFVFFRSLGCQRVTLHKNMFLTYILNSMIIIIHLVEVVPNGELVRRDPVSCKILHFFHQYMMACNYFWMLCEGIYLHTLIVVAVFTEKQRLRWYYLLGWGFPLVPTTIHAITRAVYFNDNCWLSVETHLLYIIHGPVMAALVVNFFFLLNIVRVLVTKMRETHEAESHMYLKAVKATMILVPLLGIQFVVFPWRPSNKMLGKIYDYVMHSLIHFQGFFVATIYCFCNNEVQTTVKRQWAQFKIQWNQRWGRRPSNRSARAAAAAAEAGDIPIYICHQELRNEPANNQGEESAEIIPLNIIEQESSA
T1 sequence (looked up) 2: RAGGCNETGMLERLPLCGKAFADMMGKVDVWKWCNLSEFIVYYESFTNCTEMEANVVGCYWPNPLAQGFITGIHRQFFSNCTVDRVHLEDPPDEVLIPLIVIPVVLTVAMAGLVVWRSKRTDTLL


biological target: T1, human amylin receptor (human calcitonin receptor + human RAMP3) (human); test: whole-cell competition vs 125I-rat amylin (Assay Va)

Row | IC50 | Binder
1 | 22 nM | {C18 diacid-γGlu}-ASELSTAALGRLSAELHELATLPRTETGSGPP-NH2 (SMILES CC(C)C[C@H](NC(=O)[C@H](C)NC(=O)[C@H](C)NC(=O)[C@@H](NC(=O)[C@H](CO)NC(=O)[C@H](CC(C)C)NC(=O)[C@H](CCC(=O)O)NC(=O)[C@H](CO)NC(=O)[C@H](C)NC(=O)CC[C@H](NC(=O)CCCCCCCCCCCCCCCCC(=O)O)C(=O)O)[C@@H](C)O)C(=O)NCC(=O)N[C@@H](CCCNC(=N)N)C(=O)N[C@@H](CC(C)C)C(=O)N[C@@H](CO)C(=O)N[C@@H](C)C(=O)N[C@@H](CCC(=O)O)C(=O)N[C@@H](CC(C)C)C(=O)N[C@@H](Cc1c[nH]cn1)C(=O)N[C@@H](CCC(=O)O)C(=O)N[C@@H](CC(C)C)C(=O)N[C@@H](C)C(=O)N[C@H](C(=O)N[C@@H](CC(C)C)C(=O)N1CCC[C@H]1C(=O)N[C@@H](CCCNC(=N)N)C(=O)N[C@H](C(=O)N[C@@H](CCC(=O)O)C(=O)N[C@H](C(=O)NCC(=O)N[C@@H](CO)C(=O)NCC(=O)N1CCC[C@H]1C(=O)N1CCC[C@H]1C(N)=O)[C@@H](C)O)[C@@H](C)O)[C@@H](C)O) [[N-terminal(C18 diacid-gGlu), des1, 30S, 31G, 32P]mimylin]
2 | 0.587 nM | {C18 diacid-γGlu}-ASQLSTAALGRLSAELHELATLPRTETGSGSP-NH2 (SMILES CC(C)C[C@H](NC(=O)[C@H](C)NC(=O)[C@H](C)NC(=O)[C@@H](NC(=O)[C@H](CO)NC(=O)[C@H](CC(C)C)NC(=O)[C@H](CCC(N)=O)NC(=O)[C@H](CO)NC(=O)[C@H](C)NC(=O)CC[C@H](NC(=O)CCCCCCCCCCCCCCCCC(=O)O)C(=O)O)[C@@H](C)O)C(=O)NCC(=O)N[C@@H](CCCNC(=N)N)C(=O)N[C@@H](CC(C)C)C(=O)N[C@@H](CO)C(=O)N[C@@H](C)C(=O)N[C@@H](CCC(=O)O)C(=O)N[C@@H](CC(C)C)C(=O)N[C@@H](Cc1c[nH]cn1)C(=O)N[C@@H](CCC(=O)O)C(=O)N[C@@H](CC(C)C)C(=O)N[C@@H](C)C(=O)N[C@H](C(=O)N[C@@H](CC(C)C)C(=O)N1CCC[C@H]1C(=O)N[C@@H](CCCNC(=N)N)C(=O)N[C@H](C(=O)N[C@@H](CCC(=O)O)C(=O)N[C@H](C(=O)NCC(=O)N[C@@H](CO)C(=O)NCC(=O)N[C@@H](CO)C(=O)N1CCC[C@H]1C(N)=O)[C@@H](C)O)[C@@H](C)O)[C@@H](C)O) [[N-terminal(C18 diacid-gGlu), des1, 4Q, 30S, 31G]mimylin]
3 | 0.606 nM | {C20 diacid-γGlu}-ASELSTAALGRLSAELHELATLPRTETGTGTP-NH2 (SMILES CC(C)C[C@H](NC(=O)[C@H](C)NC(=O)[C@H](C)NC(=O)[C@@H](NC(=O)[C@H](CO)NC(=O)[C@H](CC(C)C)NC(=O)[C@H](CCC(=O)O)NC(=O)[C@H](CO)NC(=O)[C@H](C)NC(=O)CC[C@H](NC(=O)CCCCCCCCCCCCCCCCCCC(=O)O)C(=O)O)[C@@H](C)O)C(=O)NCC(=O)N[C@@H](CCCNC(=N)N)C(=O)N[C@@H](CC(C)C)C(=O)N[C@@H](CO)C(=O)N[C@@H](C)C(=O)N[C@@H](CCC(=O)O)C(=O)N[C@@H](CC(C)C)C(=O)N[C@@H](Cc1c[nH]cn1)C(=O)N[C@@H](CCC(=O)O)C(=O)N[C@@H](CC(C)C)C(=O)N[C@@H](C)C(=O)N[C@H](C(=O)N[C@@H](CC(C)C)C(=O)N1CCC[C@H]1C(=O)N[C@@H](CCCNC(=N)N)C(=O)N[C@H](C(=O)N[C@@H](CCC(=O)O)C(=O)N[C@H](C(=O)NCC(=O)N[C@H](C(=O)NCC(=O)N[C@H](C(=O)N1CCC[C@H]1C(N)=O)[C@@H](C)O)[C@@H](C)O)[C@@H](C)O)[C@@H](C)O)[C@@H](C)O) [[N-terminal(C20 diacid-gGlu), des1, 30T, 31G, 32T]mimylin]
4 | 0.764 nM | {C18 diacid-γGlu}-ASELSTAVLGRLSAELHELATLPRTETGSGSP-NH2 (SMILES CC(C)C[C@H](NC(=O)[C@H](CCC(=O)O)NC(=O)[C@H](Cc1c[nH]cn1)NC(=O)[C@H](CC(C)C)NC(=O)[C@H](CCC(=O)O)NC(=O)[C@H](C)NC(=O)[C@H](CO)NC(=O)[C@H](CC(C)C)NC(=O)[C@H](CCCNC(=N)N)NC(=O)CNC(=O)[C@H](CC(C)C)NC(=O)[C@@H](NC(=O)[C@H](C)NC(=O)[C@@H](NC(=O)[C@H](CO)NC(=O)[C@H](CC(C)C)NC(=O)[C@H](CCC(=O)O)NC(=O)[C@H](CO)NC(=O)[C@H](C)NC(=O)CC[C@H](NC(=O)CCCCCCCCCCCCCCCCC(=O)O)C(=O)O)[C@@H](C)O)C(C)C)C(=O)N[C@@H](C)C(=O)N[C@H](C(=O)N[C@@H](CC(C)C)C(=O)N1CCC[C@H]1C(=O)N[C@@H](CCCNC(=N)N)C(=O)N[C@H](C(=O)N[C@@H](CCC(=O)O)C(=O)N[C@H](C(=O)NCC(=O)N[C@@H](CO)C(=O)NCC(=O)N[C@@H](CO)C(=O)N1CCC[C@H]1C(N)=O)[C@@H](C)O)[C@@H](C)O)[C@@H](C)O) [[N-terminal(C18 diacid-gGlu), des1, 9V, 30S, 31G]mimylin]
5 | 0.998 nM | {C18 diacid}-EASEISTAIIGRLSAELHEIATLPRTETGPESP-NH2 (SMILES CC[C@H](C)[C@H](NC(=O)[C@H](C)NC(=O)[C@@H](NC(=O)[C@H](CO)NC(=O)[C@@H](NC(=O)[C@H](CCC(=O)O)NC(=O)[C@H](CO)NC(=O)[C@H](C)NC(=O)[C@H](CCC(=O)O)NC(=O)CCCCCCCCCCCCCCCCC(=O)O)[C@@H](C)CC)[C@@H](C)O)C(=O)N[C@H](C(=O)NCC(=O)N[C@@H](CCCNC(=N)N)C(=O)N[C@@H](CC(C)C)C(=O)N[C@@H](CO)C(=O)N[C@@H](C)C(=O)N[C@@H](CCC(=O)O)C(=O)N[C@@H](CC(C)C)C(=O)N[C@@H](Cc1c[nH]cn1)C(=O)N[C@@H](CCC(=O)O)C(=O)N[C@H](C(=O)N[C@@H](C)C(=O)N[C@H](C(=O)N[C@@H](CC(C)C)C(=O)N1CCC[C@H]1C(=O)N[C@@H](CCCNC(=N)N)C(=O)N[C@H](C(=O)N[C@@H](CCC(=O)O)C(=O)N[C@H](C(=O)NCC(=O)N1CCC[C@H]1C(=O)N[C@@H](CCC(=O)O)C(=O)N[C@@H](CO)C(=O)N1CCC[C@H]1C(N)=O)[C@@H](C)O)[C@@H](C)O)[C@@H](C)O)[C@@H](C)CC)[C@@H](C)CC) [[N-terminal(C18 diacid), 5I, 9I, 10I, 20I]mimylin]
6 | 0.111 nM | {C20 diacid-γGlu}-ASGLSTAALGRLSAELHELATYPRTETGSGSP-NH2 [[N-terminal(C20 diacid-gGlu), des1, 4G, 23Y, 30S, 31G]mimylin]
7 | 0.608 nM | {C20 diacid-γGlu}-ASELSTAALGRLSAELHELATLPHTETGSGSP-NH2 (SMILES CC(C)C[C@H](NC(=O)[C@H](C)NC(=O)[C@H](C)NC(=O)[C@@H](NC(=O)[C@H](CO)NC(=O)[C@H](CC(C)C)NC(=O)[C@H](CCC(=O)O)NC(=O)[C@H](CO)NC(=O)[C@H](C)NC(=O)CC[C@H](NC(=O)CCCCCCCCCCCCCCCCCCC(=O)O)C(=O)O)[C@@H](C)O)C(=O)NCC(=O)N[C@@H](CCCNC(=N)N)C(=O)N[C@@H](CC(C)C)C(=O)N[C@@H](CO)C(=O)N[C@@H](C)C(=O)N[C@@H](CCC(=O)O)C(=O)N[C@@H](CC(C)C)C(=O)N[C@@H](Cc1c[nH]cn1)C(=O)N[C@@H](CCC(=O)O)C(=O)N[C@@H](CC(C)C)C(=O)N[C@@H](C)C(=O)N[C@H](C(=O)N[C@@H](CC(C)C)C(=O)N1CCC[C@H]1C(=O)N[C@@H](Cc1c[nH]cn1)C(=O)N[C@H](C(=O)N[C@@H](CCC(=O)O)C(=O)N[C@H](C(=O)NCC(=O)N[C@@H](CO)C(=O)NCC(=O)N[C@@H](CO)C(=O)N1CCC[C@H]1C(N)=O)[C@@H](C)O)[C@@H](C)O)[C@@H](C)O) [[N-terminal(C20 diacid-gGlu), des1, 25H, 30S, 31G]mimylin]
8 | 4.36 nM | {C20 diacid-γGlu}-ASELSTAALGRLSAELHELATLPRTETGSGSG-NH2 (SMILES CC(C)C[C@H](NC(=O)[C@H](C)NC(=O)[C@H](C)NC(=O)[C@@H](NC(=O)[C@H](CO)NC(=O)[C@H](CC(C)C)NC(=O)[C@H](CCC(=O)O)NC(=O)[C@H](CO)NC(=O)[C@H](C)NC(=O)CC[C@H](NC(=O)CCCCCCCCCCCCCCCCCCC(=O)O)C(=O)O)[C@@H](C)O)C(=O)NCC(=O)N[C@@H](CCCNC(=N)N)C(=O)N[C@@H](CC(C)C)C(=O)N[C@@H](CO)C(=O)N[C@@H](C)C(=O)N[C@@H](CCC(=O)O)C(=O)N[C@@H](CC(C)C)C(=O)N[C@@H](Cc1c[nH]cn1)C(=O)N[C@@H](CCC(=O)O)C(=O)N[C@@H](CC(C)C)C(=O)N[C@@H](C)C(=O)N[C@H](C(=O)N[C@@H](CC(C)C)C(=O)N1CCC[C@H]1C(=O)N[C@@H](CCCNC(=N)N)C(=O)N[C@H](C(=O)N[C@@H](CCC(=O)O)C(=O)N[C@H](C(=O)NCC(=O)N[C@@H](CO)C(=O)NCC(=O)N[C@@H](CO)C(=O)NCC(N)=O)[C@@H](C)O)[C@@H](C)O)[C@@H](C)O) [[N-terminal(C20 diacid-gGlu), des1, 30S, 31G, 33G]mimylin]
9 | 1.89 nM | {C20 diacid-γGlu}-ASELSTAALGRLSAELHELATLPRTETGSGSA-NH2 (SMILES CC(C)C[C@H](NC(=O)[C@H](C)NC(=O)[C@H](C)NC(=O)[C@@H](NC(=O)[C@H](CO)NC(=O)[C@H](CC(C)C)NC(=O)[C@H](CCC(=O)O)NC(=O)[C@H](CO)NC(=O)[C@H](C)NC(=O)CC[C@H](NC(=O)CCCCCCCCCCCCCCCCCCC(=O)O)C(=O)O)[C@@H](C)O)C(=O)NCC(=O)N[C@@H](CCCNC(=N)N)C(=O)N[C@@H](CC(C)C)C(=O)N[C@@H](CO)C(=O)N[C@@H](C)C(=O)N[C@@H](CCC(=O)O)C(=O)N[C@@H](CC(C)C)C(=O)N[C@@H](Cc1c[nH]cn1)C(=O)N[C@@H](CCC(=O)O)C(=O)N[C@@H](CC(C)C)C(=O)N[C@@H](C)C(=O)N[C@H](C(=O)N[C@@H](CC(C)C)C(=O)N1CCC[C@H]1C(=O)N[C@@H](CCCNC(=N)N)C(=O)N[C@H](C(=O)N[C@@H](CCC(=O)O)C(=O)N[C@H](C(=O)NCC(=O)N[C@@H](CO)C(=O)NCC(=O)N[C@@H](CO)C(=O)N[C@@H](C)C(N)=O)[C@@H](C)O)[C@@H](C)O)[C@@H](C)O) [[N-terminal(C20 diacid-gGlu), des1, 30S, 31G, 33A]mimylin]
